From paper PMC6582406 (Nucleic Acids Research, 2019) come the findings set out here.

This data set concerns the molecule itself. Briefly: SEC.

B1: EBOV VP35 fused with maltose-binding protein at its N-terminal (MBP–VP35) (natural protein)
chain: MTTRTKGRGHTAATTQNDRMPGPELSGWISEQLMTGRIPVSDIFCDIENNPGLCYASQMQQTKPNPKTRNSQTQTDPICNHSFEEVVQTLASLATVVQQQTIASESLEQRITSLENGLKPVYDMAKTISSLNRVCAEMVAKYDLLVMTTGRATATAAATEAYWAEHGQPPPGPSLYEESAIRGKIESRDETVPQSVREAFNNLNSTTSLTEENFGKPDISAKDLRNIMYDHLPGFGTAFHQLVQVICKLGKDSNSLDIIHAEFQASLAEGDSPQCALIQITKRVPIFQDAAPPVIHIRSRGDIPRACQKSLRPVPPSPKIDRGWVCVFQLQDGKTLGLKI
B1: the binding result is recorded as “binds”.
